Here are results for one molecule from article PMC6131177.

Experiment [1] deals with T1, Bacteriorhodopsin (Halobacterium salinarum S9), P02945.
T1 chain: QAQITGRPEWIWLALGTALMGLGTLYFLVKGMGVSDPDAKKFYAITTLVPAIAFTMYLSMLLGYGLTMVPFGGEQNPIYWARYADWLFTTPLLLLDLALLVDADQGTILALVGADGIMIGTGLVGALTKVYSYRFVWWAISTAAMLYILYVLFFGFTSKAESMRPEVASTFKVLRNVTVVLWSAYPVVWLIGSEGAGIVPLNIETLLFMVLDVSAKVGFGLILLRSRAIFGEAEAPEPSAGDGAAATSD
The experiment in a line: circular dichroism in the visible range; bR in native purple membrane (PM); 700-400 nm, 20 °C; a biphasic signal marks the trimer. The settings on record: remark: other sources report otherwise.

In experiment [2] the target is T1, Bacteriorhodopsin (Halobacterium …). Put plainly: circular dichroism in the visible range; bR in PMND (cE3D1 nanodisc assembled directly from PM), SEC-purified early fractions 1 to 6; 700-400 nm, 20 °C; a biphasic signal marks the trimer. The settings on record: remark: other sources report otherwise.

B1: Bacteriorhodopsin, P02945 14-262 (natural protein)
chain: T1 chain
modifications: here or on the partner: retinal Schiff base (residue not given); retinal Schiff base (residue not given)
On to B1, for which the stoichiometry N in experiment [1] and in experiment [2] was 3 in each case.
